{
  "source": "paper doi:10.1101/2025.08.25.672131",
  "key": {"[1]": {"biological_target": "CREB-bZIP (bZIP domain of human CREB1, residues 277-339 of CREB-A) (human)", "experiment": "stopped-flow intrinsic tyrosine fluorescence, urea refolding kinetics"}, "[2]": {"biological_target": "CREB-bZIP-L318V (human)", "experiment": "other fluorescence titration"}, "[3]": {"biological_target": "CREB-bZIP-L318V (human)", "experiment": "stopped-flow fluorescence out-competition"}, "[4]": {"biological_target": "CREB-bZIP-L332V (human)", "experiment": "other fluorescence titration"}},
  "data": [
    {"substance": "CREB-bZIP (bZIP domain of human CREB1, residues 277-339 of CREB-A) (domain or fragment)", "values": [
      {"measurement": "Kd", "setting": "[1]", "result": 5.7, "unit": "nM"},
      {"measurement": "koff", "setting": "[1]", "result": 0.029, "unit": "s⁻¹"},
      {"measurement": "kon", "setting": "[1]", "result": "1e+07", "unit": "M⁻¹ s⁻¹"}
    ]},
    {"substance": "CREB-bZIP-L318V (domain or fragment)", "values": [
      {"measurement": "fold increase of Kd,M-M against CREB-bZIP", "setting": "[2]", "result": 1000, "unit": "fold"},
      {"measurement": "k+,M-M.CRE (association of a monomer with CRE-bound monomer, inferred)", "setting": "[3]", "result": "5e+09", "unit": "M⁻¹ s⁻¹"},
      {"measurement": "k-,M-M.CRE (dissociation of a monomer from the CRE-bound dimer)", "setting": "[3]", "result": 0.079, "unit": "s⁻¹"}
    ]},
    {"substance": "CREB-bZIP-L332V (domain or fragment)", "values": [
      {"measurement": "fold increase of Kd,M-M against CREB-bZIP", "setting": "[4]", "result": 100, "unit": "fold"}
    ]}
  ]
}
